Test results as given in the Human Domainome abundance scans (Beltran et al. 2025).

B1: Pyruvate dehydrogenase protein X component, mitochondrial, residues 181 to 227; numbered along this chain, O00330 (parent)
chain: RFRLSPAARNILEKHSLDASQGTATGPRGIFTKEDALKLVQLKQTGK

Variants of: B1
Assay: abundance fitness (aPCA) (normalised: wild type 0, dead -1); higher = more abundant; growth selection in yeast, the domain comes from the species named
Details: Homo sapiens

Abundance fitness: each site, then its substitutions
P6: E 0.355 | S 0.041 | C -0.004
A8: W -1.15 | I -1.07 | V -0.639 | C -0.999 | L -1.02 | F -0.683 | R -0.391 | T -0.387 | N -0.817 | H -0.564 | Y -0.902 | E -0.183 | M -0.29 | Q -0.601
R9: G -0.152 | V -0.206 | C -0.924 | H -0.252 | D -0.262 | Q -0.05 | W -0.668 | M -0.251 | I -0.137 | K 0.1 | A -0.135 | S -0.272 | N -0.092 | E -0.21 | Y -0.495
L4: G -0.241 | I 0.245 | Y -0.131 | P -0.333 | S -0.167 | M -0.008 | Q -0.357 | T -0.204 | N 0.049 | H -0.758 | K -0.09 | R -0.588
D18: P -0.815 | V -0.625 | S -0.393 | M -0.394 | A -0.591 | I -0.336 | Q -0.113 | Y -0.605 | W -1.06 | C -0.331 | G -0.598 | E -0.815 | N 0.028 | T -0.256 | R -0.707 | K 0.086 | F -0.92
S16: I -0.894 | N 0.018 | Q 0.069 | G 0.244 | M -0.708 | W -0.699 | V -0.613 | T -0.109 | F -0.416 | L -0.667 | Y -0.385 | C -0.215 | A -0.186 | E 0.035 | D 0.078 | K 0.061 | P -0.281 | H -0.026
G22: E -0.43 | M -0.369 | T -0.554 | R -0.723 | C -0.419 | L -0.475 | I -0.446 | F -0.679 | W -0.712 | Q -0.479 | V -0.378 | D -0.552 | A -0.337 | N -0.648 | Y -0.623 | H -0.524 | K -0.633 | S -0.619 | P -0.64
Q21: T -0.427 | C -0.167 | R -0.44 | L -0.051 | D -0.194 | N -0.516 | K -0.339 | Y -0.481 | W -0.223 | F -0.493 | M -0.084 | S -0.158 | V -0.31 | E 0.041 | G -0.101 | P -0.453
L17: P -0.07 | Q -0.483 | E -0.33 | V -0.331 | C -0.244 | R -0.856 | I -0.22 | D -0.534 | M -0.134 | F -0.635 | W -0.57 | H -0.308 | Y -0.691 | G -0.575 | K -0.509 | T -0.31 | A -0.506 | S -0.486 | N -0.687
S5: E 0.081 | I -0.135 | G -0.564 | T -0.032 | A -0.257 | W -1.01 | V -0.621 | M -0.036 | D -0.098 | C -0.608 | Q -0.384 | R -0.862 | L -0.725 | K -0.61 | N -0.327 | H -0.795
E13: Q -0.215 | L -0.225 | D -0.079 | M -0.661 | N 0.1 | P -0.564 | G -0.387 | I -0.224 | T -0.428 | K -0.097 | S -0.348 | C -0.441 | W -0.841 | V -0.391 | R -0.242 | F -0.612 | H -0.3 | A -0.255
